Test results taken from publication doi:10.1101/2025.10.15.682582, “A recombinant norrin-derived growth factor retains the complete multifunctionality of human norrin” (bioRxiv, 2025).

Molecular target: T1, rhFrizzled-4/FC Chimera (human, UniProt Q9ULV1 37-212)
T1 sequence (looked up): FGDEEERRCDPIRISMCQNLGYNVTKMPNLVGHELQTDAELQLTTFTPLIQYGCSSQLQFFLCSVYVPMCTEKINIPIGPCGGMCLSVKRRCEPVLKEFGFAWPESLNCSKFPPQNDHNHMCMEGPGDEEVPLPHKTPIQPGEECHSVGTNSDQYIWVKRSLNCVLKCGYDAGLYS
Experiment: cell-based or functional assay

B1: human recombinant norrin (ligand, UniProt Q00604 25-133, looked up)
chain: KTDSSFIMDSDPRRCMRHHYVDSISHPLYKCSSKMVLLARCEGHCSQASRSEPLVSFSTVLKQPFRSSCHCCRPQTSKLKALRLRCSGGMRLTATYRYILSCHCEECNS
  TCF/LEF firefly luciferase reporter in HEK-293 cells transfected with FZD4 and LRP5; average EC50 of 3 assays with human norrin: 0.036 mg/L
